The labels stand for the following.
B1: Kelch-like ECH-associated protein 1 (Mus musculus), Q9Z2X8 (parent)
chain: MQPEPKLSGAPRSSQFLPLWSKCPEGAGDAVMYASTECKAEVTPSQDGNRTFSYTLEDHTKQAFGVMNELRLSQQLCDVTLQVKYEDIPAAQFMAHKVVLASSSPVFKAMFTNGLREQGMEVVSIEGIHPKVMERLIEFAYTASISVGEKCVLHVMNGAVMYQIDSVVRACSDFLVQQLDPSNAIGIANFAEQIGCTELHQRAREYIYMHFGEVAKQEEFFNLSHCQLATLISRDDLNVRCESEVFHACIDWVKYDCPQRRFYVQALLRAVRCHALTPRFLQTQLQKCEILQADARCKDYLVQIFQELTLHKPTQAVPCRAPKVGRLIYTAGGYFRQSLSYLEAYNPSNGSWLRLADLQVPRSGLAGCVVGGLLYAVGGRNNSPDGNTDSSALDCYNPMTNQWSPCASMSVPRNRIGVGVIDGHIYAVGGSHGCIHHSSVERYEPERDEWHLVAPMLTRRIGVGVAVLNRLLYAVGGFDGTNRLNSAECYYPERNEWRMITPMNTIRSGAGVCVLHNCIYAAGGYDGQDQLNSVERYDVETETWTFVAPMRHHRSALGITVHQGKIYVLGGYDGHTFLDSVECYDPDSDTWSEVTRMTSGRSGVGVAVTMEPCRKQIDQQNCTC
partner: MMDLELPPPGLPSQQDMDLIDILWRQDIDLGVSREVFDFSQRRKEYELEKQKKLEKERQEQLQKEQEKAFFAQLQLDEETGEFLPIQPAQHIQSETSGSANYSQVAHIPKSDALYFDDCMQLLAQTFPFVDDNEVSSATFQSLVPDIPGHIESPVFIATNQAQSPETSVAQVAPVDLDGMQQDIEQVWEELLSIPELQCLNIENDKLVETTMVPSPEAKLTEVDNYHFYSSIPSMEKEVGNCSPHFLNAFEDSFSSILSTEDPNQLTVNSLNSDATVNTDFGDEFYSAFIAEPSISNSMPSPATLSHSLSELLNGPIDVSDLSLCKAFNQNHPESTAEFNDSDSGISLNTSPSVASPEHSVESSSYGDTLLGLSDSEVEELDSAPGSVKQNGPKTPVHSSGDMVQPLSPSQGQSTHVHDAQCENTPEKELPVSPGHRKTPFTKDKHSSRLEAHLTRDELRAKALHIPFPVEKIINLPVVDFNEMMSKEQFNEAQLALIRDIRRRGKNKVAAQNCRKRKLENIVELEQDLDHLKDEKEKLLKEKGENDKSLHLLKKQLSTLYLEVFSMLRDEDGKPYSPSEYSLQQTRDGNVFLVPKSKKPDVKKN

Experimental findings from IntAct's records for PubMed 20173742 are described below.

The variants in the test derive from B1. To be noted: with nf2l2_human NFE2L2, Q16236.
Take R380A: the “effect of a mutation on the interaction” value is recorded as “decreasing interaction”. With N382A, the “effect of a mutation on the interaction” value is “disrupting interaction”. As for Y334A, the “effect of a mutation on the interaction” value was “disrupting interaction”. Then Q530A, with “decreasing interaction”; and S363A, with “disrupting interaction”. Then S508A, with “disrupting interaction”. Take R415A: the “effect of a mutation on the interaction” value is on record as “disrupting interaction”. Then S555A, with “decreasing interaction”; and S602A, with “disrupting interaction”.
